Experimental findings from the RNAGym collection of RNA variant scans (doi:10.7554/elife.80360) are described below.

B1: CPEB3 Ribozyme (parent)
chain: GGGGGCCACAGCAGAAGCGUUCACGUCGCGGCCCCUGUCAGAUUCUGGUGAAUCUGCGAAUUCUGCUGU

This data set covers variants of B1. The experiment in a line: self-cleavage, relative activity (ratio to wild type); higher = more cleavage; co-transcriptional.
Regarding GGGGGCCACAGCAGAAGCGUUCACGUCGCGGCCCCUGUCAGAUUCUGGGGAAUCUGCGAAGUCUGCUGU [U49G U61G], the self-cleavage was 0.991.

Consider GGGGGCCACAGCAGAAGCGUUCACGUCGCGGCCCCUGUCAGAUUCUGGUCAAUAUGCGAAUUCUGCUGU [G50C C54A], for which the self-cleavage was determined as 0.53.

For GGGGGCCACAGCAGAAGCGUUCACGUCGCGGCCCCUGUCAGAUUCUGGUAAAUCUGCGAAUUUUGCUGU [G50A C63U], the self-cleavage stood at 0.986.

On to GGGGGCCACAGCAGAAGCGUUCACGUCGCGGCCCCUGUCAGAUUCUGGUCAAUCUGCGAAUUCUUCUGU [G50C G65U], for which the self-cleavage was found to be 0.774.

GGGGGCCACAGCAGAAGCGUUCACGUCGCGGCCCCUGUCAGAUUCUGGUAAAUCCGCGAAUUCUGCUGU [G50A U55C]: the self-cleavage stood at 0.79.

Take GGGGGCCACAGCAGAAGCGUUCACGUCGCGGCCCCUGUCAGAUUCUGGUAAAUCGGCGAAUUCUGCUGU [G50A U55G]: the self-cleavage stood at 0.858.

Turning to GGGGGCCACAGCAGAAGCGUUCACGUCGCGGCCCCUGUCAGAUUCUGGGGAAUAUGCGAAUUCUGCUGU [U49G C54A], the self-cleavage turned out to be 0.907.

In the case of GGGGGCCACAGCAGAAGCGUUCACGUCGCGGCCCCUGUCAGAUUCUGGGGAAUGUGCGAAUUCUGCUGU [U49G C54G], the self-cleavage worked out at 0.925.

With GGGGGCCACAGCAGAAGCGUUCACGUCGCGGCCCCUGUCAGAUUCUGGGGAAUCUGCGACUUCUGCUGU [U49G A60C], the self-cleavage turned out to be 0.338.

Take GGGGGCCACAGCAGAAGCGUUCACGUCGCGGCCCCUGUCAGAUUCUGGGGAAUCUGCCAAUUCUGCUGU [U49G G58C]: the self-cleavage was 1.

For GGGGGCCACAGCAGAAGCGUUCACGUCGCGGCCCCUGUCAGAUUCUGGGGAAUCUGCUAAUUCUGCUGU [U49G G58U], the self-cleavage came to 0.957.

Take GGGGGCCACAGCAGAAGCGUUCACGUCGCGGCCCCUGUCAGAUUCUGGGGAAUCUGCGAAUUCGGCUGU [U49G U64G]: the self-cleavage worked out at 0.926.

Turning to GGGGGCCACAGCAGAAGCGUUCACGUCGCGGCCCCUGUCAGAUUCUGGGGAAUCUGCGAAUUCCGCUGU [U49G U64C], the self-cleavage turned out to be 0.932.

As to GGGGGCCACAGCAGAAGCGUUCACGUCGCGGCCCCUGUCAGAUUCUGGUCAAUCUGCGAGUUCUGCUGU [G50C A60G], the self-cleavage was found to be 0.959.

As for GGGGGCCACAGCAGAAGCGUUCACGUCGCGGCCCCUGUCAGAUUCUGGUCAAUCUGGGAAUUCUGCUGU [G50C C57G], the self-cleavage worked out at 0.314.

For the variant GGGGGCCACAGCAGAAGCGUUCACGUCGCGGCCCCUGUCAGAUUCUGGUAAAUCUGCGAAUUCCGCUGU [G50A U64C], the self-cleavage was found to be 0.874.

In the case of GGGGGCCACAGCAGAAGCGUUCACGUCGCGGCCCCUGUCAGAUUCUGGUAAAUCUGCGAAUUCGGCUGU [G50A U64G], the self-cleavage was 0.892.

As to GGGGGCCACAGCAGAAGCGUUCACGUCGCGGCCCCUGUCAGAUUCUGGGGAAUCUGCGAAUUCUACUGU [U49G G65A], the self-cleavage is 0.97.

Turning to GGGGGCCACAGCAGAAGCGUUCACGUCGCGGCCCCUGUCAGAUUCUGGUUAAUCUGCGCAUUCUGCUGU [G50U A59C], the self-cleavage stood at 0.682.

Take GGGGGCCACAGCAGAAGCGUUCACGUCGCGGCCCCUGUCAGAUUCUGGGGAAUCUGCGAAUUCUGCUGC [U49G U69C]: the self-cleavage was determined as 1.06.

As to GGGGGCCACAGCAGAAGCGUUCACGUCGCGGCCCCUGUCAGAUUCUGGGGAAUCUGCGAAUUCUGCUGA [U49G U69A], the self-cleavage turned out to be 1.01.

As to GGGGGCCACAGCAGAAGCGUUCACGUCGCGGCCCCUGUCAGAUUCUGGUAAAUCUGCGAAUUCUGCUAU [G50A G68A], the self-cleavage amounted to 1.03.

As for GGGGGCCACAGCAGAAGCGUUCACGUCGCGGCCCCUGUCAGAUUCUGGGGAAUCUGCGAAUUCUGCUGU [U49G], the self-cleavage stood at 0.996.

As for GGGGGCCACAGCAGAAGCGUUCACGUCGCGGCCCCUGUCAGAUUCUGGUCAAUCUGCAAAUUCUGCUGU [G50C G58A], the self-cleavage is 0.935.

As for GGGGGCCACAGCAGAAGCGUUCACGUCGCGGCCCCUGUCAGAUUCUGGUAAAUCUGCGCAUUCUGCUGU [G50A A59C], the self-cleavage amounted to 0.806.

As for GGGGGCCACAGCAGAAGCGUUCACGUCGCGGCCCCUGUCAGAUUCUGGGGAGUCUGCGAAUUCUGCUGU [U49G A52G], the self-cleavage was 0.94.

With GGGGGCCACAGCAGAAGCGUUCACGUCGCGGCCCCUGUCAGAUUCUGGUCAAUCUGCGAAUUCUGCAGU [G50C U67A], the self-cleavage came out at 0.955.

Turning to GGGGGCCACAGCAGAAGCGUUCACGUCGCGGCCCCUGUCAGAUUCUGGCGAAUCUGCGAACUCUGCUGU [U49C U61C], the self-cleavage worked out at 0.816.

Turning to GGGGGCCACAGCAGAAGCGUUCACGUCGCGGCCCCUGUCAGAUUCUGGCGAAUCUGCGAAAUCUGCUGU [U49C U61A], the self-cleavage is 0.911.

Regarding GGGGGCCACAGCAGAAGCGUUCACGUCGCGGCCCCUGUCAGAUUCUGGUAAAUCUGCGAAGUCUGCUGU [G50A U61G], the self-cleavage stood at 0.876.

For GGGGGCCACAGCAGAAGCGUUCACGUCGCGGCCCCUGUCAGAUUCUGGUCAAACUGCGAAUUCUGCUGU [G50C U53A], the self-cleavage turned out to be 0.899.

Take GGGGGCCACAGCAGAAGCGUUCACGUCGCGGCCCCUGUCAGAUUCUGGUAAAUCUGUGAAUUCUGCUGU [G50A C57U]: the self-cleavage came out at 0.356.

With GGGGGCCACAGCAGAAGCGUUCACGUCGCGGCCCCUGUCAGAUUCUGGUAAAUCUGAGAAUUCUGCUGU [G50A C57A], the self-cleavage turned out to be 0.448.

Take GGGGGCCACAGCAGAAGCGUUCACGUCGCGGCCCCUGUCAGAUUCUGGGGAAUCUGCGAAUUCUGAUGU [U49G C66A]: the self-cleavage was determined as 0.891.

For GGGGGCCACAGCAGAAGCGUUCACGUCGCGGCCCCUGUCAGAUUCUGGUCAAUCUGCGAAUUCUGCUGC [G50C U69C], the self-cleavage was determined as 1.07.

With GGGGGCCACAGCAGAAGCGUUCACGUCGCGGCCCCUGUCAGAUUCUGGGGAAUCUGCGAAUUCUGCCGU [U49G U67C], the self-cleavage came out at 0.964.

As for GGGGGCCACAGCAGAAGCGUUCACGUCGCGGCCCCUGUCAGAUUCUGGUAAAUCUGCGAAUUCUGGUGU [G50A C66G], the self-cleavage came to 0.902.

As for GGGGGCCACAGCAGAAGCGUUCACGUCGCGGCCCCUGUCAGAUUCUGGUAAAUCUGCGAAUUCUGAUGU [G50A C66A], the self-cleavage turned out to be 0.848.

Turning to GGGGGCCACAGCAGAAGCGUUCACGUCGCGGCCCCUGUCAGAUUCUGGGGAAGCUGCGAAUUCUGCUGU [U49G U53G], the self-cleavage was 0.585.
